Assay results as given in article PMC6073767.

How the values were obtained:
[1] = confocal linescan, surface colocalisation, HEK293T co-expression; settings: glycan lost; control: Panx2-FLAG
[2] = cell-surface biotinylation, NRK; settings: glycan lost; control: wild-type Panx2
[3] = cell-surface biotinylation, AD293; settings: glycan lost; control: wild-type Panx2
[4] = cell-surface biotinylation, HEK293T; settings: glycan lost; control: wild-type Panx2

B1: Panx2: N86Q-FLAG (protein)
parent chain: MHHLLEQSADMATALLAGEKLRELILPGSQDDKAGALAALLLQLKLELPFDRVVTIGTVLVPILLVTLVFTKNFAEEPIYCYTPHNFTRDQALYARGYCWTELRDALPGVDASLWPSLFEHKFLPYALLAFAAIMYVPALGWEFLASTRLTSELNFLLQEIDNCYHRAAEGRAPKIEKQIQSKGPGITEREKREIIENAEKEKSPEQNLFEKYLERRGRSNFLAKLYLARHVLILLLSVVPISYLCTYYATQKQNEFTCALGASPDGPVGSAGPTVRVSCKLPSVQLQRIIAGVDIVLLCFMNLIILVNLIHLFIFRKSNFIFDKLNKVGIKTRRQWRRSQFCDINILAMFCNENRDHIKSLNRLDFITNESDLMYDNVVRQLLAALAQSNHDTTPTVRDSGIQTVDPSINPAEPDGSAEPPVVKRPRKKMKWIPTSNPLPQPFKEQLAIMRVENSKTEKPKPVRRKTATDTLIAPLLDAGARAAHHYKGSGGDSGPSSAPPAASEKKHTRHFSLDVHPYILGTKKAKTEAVPPALPASRSQEGGFLSQTEECGLGLAAAPTKDAPLPEKEIPYPTEPALPGLPSGGSFHVCSPPAAPAAASLSPGSLGKADPLTILSRNATHPLLHISTLYEAREEEEGGPCAPSDMGDLLSIPPPQQILIATFEEPRTVVSTVEF
localisation_or_trafficking [1]: decreases

B2: Panx2: N86Q (protein)
parent chain: MHHLLEQSADMATALLAGEKLRELILPGSQDDKAGALAALLLQLKLELPFDRVVTIGTVLVPILLVTLVFTKNFAEEPIYCYTPHNFTRDQALYARGYCWTELRDALPGVDASLWPSLFEHKFLPYALLAFAAIMYVPALGWEFLASTRLTSELNFLLQEIDNCYHRAAEGRAPKIEKQIQSKGPGITEREKREIIENAEKEKSPEQNLFEKYLERRGRSNFLAKLYLARHVLILLLSVVPISYLCTYYATQKQNEFTCALGASPDGPVGSAGPTVRVSCKLPSVQLQRIIAGVDIVLLCFMNLIILVNLIHLFIFRKSNFIFDKLNKVGIKTRRQWRRSQFCDINILAMFCNENRDHIKSLNRLDFITNESDLMYDNVVRQLLAALAQSNHDTTPTVRDSGIQTVDPSINPAEPDGSAEPPVVKRPRKKMKWIPTSNPLPQPFKEQLAIMRVENSKTEKPKPVRRKTATDTLIAPLLDAGARAAHHYKGSGGDSGPSSAPPAASEKKHTRHFSLDVHPYILGTKKAKTEAVPPALPASRSQEGGFLSQTEECGLGLAAAPTKDAPLPEKEIPYPTEPALPGLPSGGSFHVCSPPAAPAAASLSPGSLGKADPLTILSRNATHPLLHISTLYEAREEEEGGPCAPSDMGDLLSIPPPQQILIATFEEPRTVVSTVEF
localisation_or_trafficking [2]: decreases
localisation_or_trafficking [3]: decreases
localisation_or_trafficking, other: surface fraction of total protein [4]: decreases, ~1 vs approximately 4
